The assay concerns the target T1, SNRNP200 helicase region (SNRNP200^HR) (human, UniProt O75643 395-2129).
T1 construct: human SNRNP200 helicase region, residues 395-2129
Nature of the assay: SEC; competitive binding: 5 μM pre-formed SNRNP200^HR-FBP21^200–376 or SNRNP200^HR-C9ORF78 complex incubated with 5 μM GST-TSSC4 in 50 μl, 10 min on ice, then analytical SEC as in a1. To be noted: both partners purified. Background: In gel filtration, larger molecules generally elute earlier.

T1 sequence (O75643 395-2129): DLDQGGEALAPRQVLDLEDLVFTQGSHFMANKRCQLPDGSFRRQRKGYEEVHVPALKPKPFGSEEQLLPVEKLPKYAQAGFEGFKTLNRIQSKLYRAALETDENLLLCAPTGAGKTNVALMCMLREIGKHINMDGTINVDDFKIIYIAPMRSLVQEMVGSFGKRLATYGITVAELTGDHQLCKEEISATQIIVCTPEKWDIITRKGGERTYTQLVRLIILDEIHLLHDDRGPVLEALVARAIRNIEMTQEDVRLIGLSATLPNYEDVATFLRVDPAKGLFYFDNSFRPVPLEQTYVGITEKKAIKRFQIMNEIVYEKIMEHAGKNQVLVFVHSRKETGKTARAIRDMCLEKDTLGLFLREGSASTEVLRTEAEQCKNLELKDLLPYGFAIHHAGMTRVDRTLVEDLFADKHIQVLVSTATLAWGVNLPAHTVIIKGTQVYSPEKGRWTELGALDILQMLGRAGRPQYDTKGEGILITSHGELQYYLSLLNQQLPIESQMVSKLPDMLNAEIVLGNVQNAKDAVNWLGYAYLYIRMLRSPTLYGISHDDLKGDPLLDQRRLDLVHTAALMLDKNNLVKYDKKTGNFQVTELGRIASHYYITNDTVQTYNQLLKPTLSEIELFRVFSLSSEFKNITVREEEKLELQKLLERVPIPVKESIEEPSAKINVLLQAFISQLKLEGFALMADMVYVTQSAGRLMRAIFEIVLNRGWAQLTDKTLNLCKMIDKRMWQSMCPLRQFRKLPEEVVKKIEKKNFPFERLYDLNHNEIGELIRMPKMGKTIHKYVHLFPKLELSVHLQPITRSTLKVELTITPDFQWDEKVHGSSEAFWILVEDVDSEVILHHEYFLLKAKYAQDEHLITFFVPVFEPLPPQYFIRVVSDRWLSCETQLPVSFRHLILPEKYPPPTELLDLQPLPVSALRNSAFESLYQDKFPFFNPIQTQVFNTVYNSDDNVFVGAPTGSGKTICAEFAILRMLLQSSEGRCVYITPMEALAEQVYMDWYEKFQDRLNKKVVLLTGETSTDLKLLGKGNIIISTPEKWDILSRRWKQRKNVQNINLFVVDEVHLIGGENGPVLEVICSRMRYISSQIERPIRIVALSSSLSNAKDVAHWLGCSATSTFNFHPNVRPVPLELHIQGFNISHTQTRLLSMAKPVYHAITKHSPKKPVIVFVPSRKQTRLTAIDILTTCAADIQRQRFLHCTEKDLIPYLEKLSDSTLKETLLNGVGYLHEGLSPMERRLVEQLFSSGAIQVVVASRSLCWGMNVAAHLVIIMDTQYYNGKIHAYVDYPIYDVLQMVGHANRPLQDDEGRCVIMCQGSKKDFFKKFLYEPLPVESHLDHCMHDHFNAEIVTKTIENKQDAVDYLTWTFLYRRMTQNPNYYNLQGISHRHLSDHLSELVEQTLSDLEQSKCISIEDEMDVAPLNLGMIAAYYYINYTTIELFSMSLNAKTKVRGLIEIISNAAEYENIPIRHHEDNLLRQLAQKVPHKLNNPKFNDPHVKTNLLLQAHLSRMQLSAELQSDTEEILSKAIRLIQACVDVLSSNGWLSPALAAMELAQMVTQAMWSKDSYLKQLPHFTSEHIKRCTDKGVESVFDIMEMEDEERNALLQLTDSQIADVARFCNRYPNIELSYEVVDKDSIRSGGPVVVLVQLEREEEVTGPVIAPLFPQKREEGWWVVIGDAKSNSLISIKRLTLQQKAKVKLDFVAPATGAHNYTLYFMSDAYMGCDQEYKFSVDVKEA

B1: C-terminal fragment of FBP21 (FBP21^200–376) (domain or fragment, human, UniProt O75554 200-376, looked up)
chain: HTSDLPSSKVNENSLGTLDESKSSDSHSDSDGEQEAEEGGVSTETEKPKIKFKEKNKNSDGGSDPETQKEKSIQKQNSLGSNEEKSKTLKKSNPYGEWQEIKQEVESHEEVDLELPSTENEYVSTSEADGGGEPKVVFKEKTVTSLGVMADGVAPVFKKRRTENGKSRNLRQRGDDQ
In the case of B1, the binding result is “binds”.

Source of the values: paper PMC8934646, “The intrinsically disordered TSSC4 protein acts as a helicase inhibitor, placeholder and multi-interaction coordinator during snRNP assembly and recycling” (Nucleic Acids Research, 2022).
